# Results: US20190352418A1 (AGENUS, published 2019)
# Like-named read-outs stand apart in the source and are kept apart here.
# Key:
# human CD73 on cells [1] = target: T1, human CD73 on cells (human, UniProt P21589 27-549); test: cell-based or functional assay
# T1 sequence (looked up): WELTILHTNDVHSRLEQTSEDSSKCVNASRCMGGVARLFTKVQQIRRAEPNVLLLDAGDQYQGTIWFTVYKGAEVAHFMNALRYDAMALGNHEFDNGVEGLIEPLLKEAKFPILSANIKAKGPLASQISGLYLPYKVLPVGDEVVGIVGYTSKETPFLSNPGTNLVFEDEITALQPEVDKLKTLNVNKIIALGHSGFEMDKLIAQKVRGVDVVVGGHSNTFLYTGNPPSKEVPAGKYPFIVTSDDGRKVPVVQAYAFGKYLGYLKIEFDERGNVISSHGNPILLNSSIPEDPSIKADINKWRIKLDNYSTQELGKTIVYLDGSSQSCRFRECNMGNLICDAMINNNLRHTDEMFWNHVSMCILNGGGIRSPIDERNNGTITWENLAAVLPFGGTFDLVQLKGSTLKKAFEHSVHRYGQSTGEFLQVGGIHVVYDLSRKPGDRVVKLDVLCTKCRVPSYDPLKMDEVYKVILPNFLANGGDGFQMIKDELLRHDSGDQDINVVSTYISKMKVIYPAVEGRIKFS
# human CD73 on cells [2] = target: T1, human CD73 on cells; test: cell-based or functional assay; remark: listed apart in the source
# [3] = target: T2, recombinant human CD73 protein fused with a 6×His-tag (R&D Systems, 5795EN) (human, UniProt P21589 27-547); test: cell-based or functional assay
# T2 sequence: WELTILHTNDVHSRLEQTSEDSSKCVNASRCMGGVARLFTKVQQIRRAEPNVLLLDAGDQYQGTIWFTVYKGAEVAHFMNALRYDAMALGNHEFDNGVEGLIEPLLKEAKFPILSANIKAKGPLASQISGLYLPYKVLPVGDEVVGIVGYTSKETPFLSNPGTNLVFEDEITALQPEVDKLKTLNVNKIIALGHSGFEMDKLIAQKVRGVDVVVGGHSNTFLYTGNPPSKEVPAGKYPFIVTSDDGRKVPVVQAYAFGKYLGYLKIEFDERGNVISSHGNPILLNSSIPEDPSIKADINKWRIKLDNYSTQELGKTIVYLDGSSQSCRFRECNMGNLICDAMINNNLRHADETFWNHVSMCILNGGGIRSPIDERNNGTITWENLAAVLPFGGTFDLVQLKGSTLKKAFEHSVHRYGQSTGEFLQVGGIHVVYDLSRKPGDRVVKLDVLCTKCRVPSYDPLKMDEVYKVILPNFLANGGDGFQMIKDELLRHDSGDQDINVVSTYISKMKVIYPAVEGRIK
# [4] = target: T2, recombinant human CD73 protein fused …; test: SPR; antibody on Protein A chip, CD73-His as analyte
# Procedure: (§1) The sensor chip was regenerated between cycles with a 30-sec injection of 10 mM glycine, pH 1.5. Sensograms were evaluated and fit to a simple Langmuir 1:1 interaction model using the global data analysis option of BiaEvaluation 3.1 software. Data quality was verified by visually inspecting deviations and curve fitting, and by evaluating the parameters of Rmax, Chi2, and Tc.
# [5] = target: T3, recombinant cynomolgus CD73 protein fused with a 6×His-tag (Sino Biological, 90192-C08H) (cynomolgus, UniProt A0A2K5V5U7 27-547); test: as above
# T3 sequence: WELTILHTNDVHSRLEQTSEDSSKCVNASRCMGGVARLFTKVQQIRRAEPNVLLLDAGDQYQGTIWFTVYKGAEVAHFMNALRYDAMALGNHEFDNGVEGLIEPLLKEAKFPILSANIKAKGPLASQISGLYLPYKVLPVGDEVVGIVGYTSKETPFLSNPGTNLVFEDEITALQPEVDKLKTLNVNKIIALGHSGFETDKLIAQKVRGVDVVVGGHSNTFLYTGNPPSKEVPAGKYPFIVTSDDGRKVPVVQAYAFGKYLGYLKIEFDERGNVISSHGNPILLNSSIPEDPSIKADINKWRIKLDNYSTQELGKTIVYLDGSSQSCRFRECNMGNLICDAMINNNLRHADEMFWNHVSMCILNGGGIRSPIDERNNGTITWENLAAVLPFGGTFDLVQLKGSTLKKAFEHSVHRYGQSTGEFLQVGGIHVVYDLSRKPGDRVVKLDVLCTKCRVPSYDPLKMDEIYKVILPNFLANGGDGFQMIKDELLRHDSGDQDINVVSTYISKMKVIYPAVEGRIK
# Procedure: as §1
# [6] = target: T4, recombinant mouse CD73 protein fused with a 6×His-tag (R&D Systems, 4488EN) (mouse, UniProt Q61503 29-549, limits assumed); test: as above
# T4 sequence (looked up): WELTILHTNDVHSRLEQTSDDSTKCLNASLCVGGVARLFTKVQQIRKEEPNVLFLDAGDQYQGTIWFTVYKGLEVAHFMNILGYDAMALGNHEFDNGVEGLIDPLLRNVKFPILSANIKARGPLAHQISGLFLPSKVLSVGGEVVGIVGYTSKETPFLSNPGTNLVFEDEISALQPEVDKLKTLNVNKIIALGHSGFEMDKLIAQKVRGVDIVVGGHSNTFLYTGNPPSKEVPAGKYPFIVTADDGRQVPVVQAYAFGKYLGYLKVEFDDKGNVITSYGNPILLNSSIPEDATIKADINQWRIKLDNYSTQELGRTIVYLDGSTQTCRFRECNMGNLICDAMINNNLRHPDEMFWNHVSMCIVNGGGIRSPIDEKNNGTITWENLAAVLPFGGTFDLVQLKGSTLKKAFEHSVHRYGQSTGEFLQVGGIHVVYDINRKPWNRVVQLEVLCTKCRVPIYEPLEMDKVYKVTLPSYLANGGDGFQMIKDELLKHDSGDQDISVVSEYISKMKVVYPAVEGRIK
# Procedure: as §1
# [7] = target: T2, recombinant human CD73 protein fused …; test: as above; remark: listed apart in the source
# Procedure: as §1
# [8] = target: T3, recombinant cynomolgus CD73 protein …; test: as above; remark: listed apart in the source
# Procedure: as §1
# human CD73 on cells [9] = target: T1, human CD73 on cells; test: flow cytometry on CHO cells expressing human CD73; area under MFI curve
# Procedure: (§2) Briefly, Chinese hamster ovarian (CHO) cells were transduced with lentiviral vectors comprising a mouse, cynomolgus, or human CD73 coding sequence under the control of a CMV promoter, and stable CHO-CD73 cells were generated by antibiotic selection. Expression of CD73 was verified by flow cytometry using positive control antibodies. The stable CHO-CD73 cells were grown in suspension culture in RPMI media supplemented with 10% heat-inactivated FBS at 37° C. and 5% CO₂. […] The cells were then washed twice and analyzed using the LSRFortessa™ flow cytometer (BD Biosciences). FACS data were analyzed using FACS DIVA and WEHI Weasel software, and were plotted with Graphpad Prism software.
# (§3) The affinities of the humanized anti-CD73 antibodies to membrane-associated CD73 were determined. Specifically, CHO cells ectopically expressing full-length human or cynomolgus CD73 were generated, and the binding of the antibodies to the cells were examined, using the method as described in Example 6.1.3.
# cynomolgus CD73 on cells [10] = target: T5, cynomolgus CD73 on cells (cynomolgus, UniProt A0A2K5V5U7 27-549); test: flow cytometry on CHO cells expressing cynomolgus CD73; area under MFI curve
# T5 construct: whole, on cells; also called full-length cynomolgus CD73 on CHO cells; CD73 on cynomolgus monkey CD8+ T cells
# T5 sequence: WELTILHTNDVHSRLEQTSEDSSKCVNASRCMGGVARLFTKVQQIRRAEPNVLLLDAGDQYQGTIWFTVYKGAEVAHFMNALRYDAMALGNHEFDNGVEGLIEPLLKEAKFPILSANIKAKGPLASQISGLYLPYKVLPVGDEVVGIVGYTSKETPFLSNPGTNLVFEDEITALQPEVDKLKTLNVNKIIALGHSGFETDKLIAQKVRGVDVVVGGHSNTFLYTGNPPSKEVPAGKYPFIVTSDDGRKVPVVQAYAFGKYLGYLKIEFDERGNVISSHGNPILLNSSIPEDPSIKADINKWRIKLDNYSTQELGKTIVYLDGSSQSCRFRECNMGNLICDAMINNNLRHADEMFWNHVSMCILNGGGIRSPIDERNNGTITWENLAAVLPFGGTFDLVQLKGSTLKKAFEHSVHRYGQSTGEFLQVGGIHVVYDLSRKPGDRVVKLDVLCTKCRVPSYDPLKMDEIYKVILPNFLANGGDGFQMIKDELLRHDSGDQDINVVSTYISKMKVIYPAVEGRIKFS
# Procedure: as §2, §3
# human CD73 on cells [11] = target: T1, human CD73 on cells; test: flow cytometry, CHO cells expressing human CD73, MFI vs antibody concentration
# cynomolgus CD73 on cells [12] = target: T5, cynomolgus CD73 on cells; test: flow cytometry, CHO cells expressing cynomolgus CD73, MFI vs antibody concentration
# human CD73 on cells [13] = target: T1, human CD73 on cells; test: flow cytometry, CHO cells expressing human CD73 (panel CHO-huCD73), MFI vs antibody concentration
# Procedure: as §2
# mouse CD73 on cells = target: T6, mouse CD73 on cells (mouse, UniProt Q61503 29-551); test: flow cytometry, CHO cells expressing mouse CD73 (panel CHO-muCD73), MFI vs antibody concentration
# T6 construct: whole, on cells; also called full-length mouse CD73 on CHO cells (CHO-muCD73); CD73 on mouse CD8+ T cells
# T6 sequence (looked up): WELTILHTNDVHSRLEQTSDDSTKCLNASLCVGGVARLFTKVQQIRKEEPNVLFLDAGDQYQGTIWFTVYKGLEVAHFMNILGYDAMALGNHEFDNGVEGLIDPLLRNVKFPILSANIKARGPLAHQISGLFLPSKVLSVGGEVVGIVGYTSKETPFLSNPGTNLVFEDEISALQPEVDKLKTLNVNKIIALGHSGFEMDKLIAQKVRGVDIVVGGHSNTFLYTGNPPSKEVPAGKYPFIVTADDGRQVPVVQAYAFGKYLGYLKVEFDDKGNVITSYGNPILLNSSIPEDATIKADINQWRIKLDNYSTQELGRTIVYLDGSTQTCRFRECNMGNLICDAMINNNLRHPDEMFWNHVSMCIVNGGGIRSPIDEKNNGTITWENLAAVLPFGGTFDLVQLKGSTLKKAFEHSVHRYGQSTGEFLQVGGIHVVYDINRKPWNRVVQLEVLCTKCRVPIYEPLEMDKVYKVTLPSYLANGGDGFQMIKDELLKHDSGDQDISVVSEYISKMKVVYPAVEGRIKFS
# Procedure: as §2
# cynomolgus CD73 on cells [14] = target: T5, cynomolgus CD73 on cells; test: flow cytometry, CHO cells expressing cynomolgus CD73 (panel CHO-cyCD73), MFI vs antibody concentration
# Procedure: as §2
binder,measurement,setting,value
"BA015 (antibody, human IgG1, kappa, N297A, X at position 1 is E or pyroglutamate, chimeric: BA012 murine variable regions, human IgG1 N297A and human Igκ constant regions) heavy: not shown light: DIQMTQSTSSLSASLGDRVTISCRASQDISNYLNWYQQKPDGTVKLLIYYTSRLHSGVPSRFSGSGSGTDYSLTISNLEQEDIATYFCQQGNTLPLTFGAGTKLELKRTVAAPSVFIFPPSDEQLKSGTASVVCLLNNFYPREAKVQWKVDNALQSGNSQESVTEQDSKDSTYSLSSTLTLSKADYEKHKVYACEVTHQGLSSPVTKSFNRGEC","AUC, CD73 enzymatic activity on Jurkat cells expressing human CD73 (FIG. 2A)",human CD73 on cells [1],239
same,"AUC, CD73 enzymatic activity on Jurkat cells expressing human CD73 (FIGS. 6B-6P)",human CD73 on cells [2],328
same,"AUC, enzymatic activity of immobilized recombinant human CD73 (FIGS. 7B-7P)",[3],91.2
same,Kd,[4],0.015 nM
same,koff,[4],0.00041 s⁻¹
same,kon,[4],2.8e+07 M⁻¹ s⁻¹
same,Kd,[5],0.3 nM
same,koff,[5],8.7e-05 s⁻¹
same,kon,[5],310000 M⁻¹ s⁻¹
same,Kd,[6],10 nM
same,koff,[6],0.0006 s⁻¹
same,kon,[6],61000 M⁻¹ s⁻¹
same,Kd,[7],0.088 nM
same,koff,[7],0.0002 s⁻¹
same,kon,[7],2.27e+06 M⁻¹ s⁻¹
same,Kd,[8],0.07 nM
same,koff,[8],8.3e-05 s⁻¹
same,kon,[8],1.14e+06 M⁻¹ s⁻¹
same,AUC,human CD73 on cells [9],113000
same,AUC,cynomolgus CD73 on cells [10],2440
same,EC50 (read off the curve),human CD73 on cells [11],~0.1 µg/mL
same,EC50 (read off the curve),cynomolgus CD73 on cells [12],~0.2 µg/mL
same,EC50 (read off the curve),human CD73 on cells [13],~0.2 µg/mL
same,EC50 (read off the curve),mouse CD73 on cells,~0.4 µg/mL
same,EC50 (read off the curve),cynomolgus CD73 on cells [14],~0.5 µg/mL
